Experimental data as given in US20230322953A1 (HARBOUR BIOMED SHANGHAI, published 2023).

T1: human BCMA (human, UniProt Q02223 1-184)
T1 construct: whole, on cells; also called hBCMA; TNFRSF17
T1 sequence (looked up): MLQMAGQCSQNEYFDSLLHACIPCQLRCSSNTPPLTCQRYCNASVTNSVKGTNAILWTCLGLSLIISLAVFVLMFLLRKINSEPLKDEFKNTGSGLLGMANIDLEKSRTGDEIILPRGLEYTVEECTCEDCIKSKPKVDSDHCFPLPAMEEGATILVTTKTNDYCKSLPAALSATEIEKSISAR


Experiments:
[1] = target: T2, cynomolgus monkey BCMA (cynomolgus monkey, UniProt A0A2K5UD97 1-183); assay: FACS on HEK293T/cyno BCMA cells
T2 construct: whole, on cells; also called cyno BCMA
T2 sequence (A0A2K5UD97 entry or part of it): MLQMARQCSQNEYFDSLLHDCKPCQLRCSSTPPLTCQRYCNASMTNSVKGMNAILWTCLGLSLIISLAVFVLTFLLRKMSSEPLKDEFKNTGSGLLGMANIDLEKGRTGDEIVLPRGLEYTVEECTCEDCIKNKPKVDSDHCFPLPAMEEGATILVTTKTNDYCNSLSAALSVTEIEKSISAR
Procedure: This example is intended to investigate the binding activity of anti-BCMA HCAb antibodies to human and cynomolgus monkey BCMAs. […] Specifically, HEK293T/hBCMA cells and HEK293T/cyno BCMA cells were digested and resuspended in a DMEM complete medium. In addition, NCI-H929 cell suspension was collected. The density of each of the three cells was adjusted to 1×10⁶ cells/mL. […] The cells were incubated at 4° C. for 1 h away from light. Thereafter, the cells in each well were rinsed twice with 100 μL of pre-cooled PBS, and centrifuged at 500 g at 4° C. for 5 min, and then the supernatant was discarded. […] The cells in each well were rinsed twice with 100 μL of pre-cooled PBS, and centrifuged at 500 g at 4° C. for 5 min, and then the supernatant was discarded. Finally, the cells in each well were resuspended in 200 μL of pre-cooled PBS. Fluorescence signal values were read using a BD FACS CANTOII flow cytometer or an ACEA NovoCyte flow cytometer, and the data were processed and analyzed using FlowJo v10 (FlowJo, LLC) software. The data were processed and analyzed by plotting using GraphPad Prism 8 software, and binding curves of the antibodies to target cells, EC₅₀ values and other parameters were obtained through four-parameter nonlinear fitting.

[2] = target: T1, human BCMA; assay: FACS on NCI-H929 cells

Binder	Maximum MFI [1]	EC50 [2] [nM]	Maximum MFI [2]
PR002308 (bispecific antibody, human IgG1, lambda, L234A L235A) light: QAVVTQEPSLTVSPGGTVTLTCRSSTGAVTTSNYANWVQQKPGQAPRGLIGGTNKRAPWTPARFSGSLLGDKAALTLLGAQPEDEAEYFCALWYSNLWVFGGGTKLTVLGQPKAAPSVTLFPPSSEELQANKATLVCLISDFYPGAVTVAWKADSSPVKAGVETTTPSKQSNNKYAASSYLSLTPEQWKSHRSYSCQVTHEGSTVEKTVAPTECS heavy: EVQLLESGGGLVQPGGSLRLSCAASGFTFSTYAMNWVRQAPGKGLEWVSRIRSKYNNYATYYADSVKDRFTISRDDSKSTLYLQMNSLRAEDTAVYYCVRHGNFGNSYVSWFAYWGQGTLVTVSSASTKGPSVFPLAPSSKSTSGGTAALGCLVKDYFPEPVTVSWNSGALTSGVHTFPAVLQSSGLYSLSSVVTVPSSSLGTQTYICNVNHKPSNTKVDKKVEPKSCDKTHTCPPCPAPEAAGGPSVFLFPPKPKDTLMISRTPEVTCVVVDVSHEDPEVKFNWYVDGVEVHNAKTKPREEQYNSTYRVVSVLTVLHQDWLNGKEYKCKVSNKALGAPIEKTISKAKGQPREPQVYTLPPCREEMTKNQVSLWCLVKGFYPSDIAVEWESNGQPENNYKTTPPVLDSDGSFFLYSKLTVDKSRWQQGNVFSCSVMHEALHNHYTQKSLSLSPGK EVQLVETGGGLIQPGGSLRLSCAASGFTVSDNYMTWVRQAPGKGLEWVSVIFSGGNTYYADSVKGRFTISRDNAKNTLYLQMNSLRAEDTALYYCARRNYDDTRGTDVFDIWGQGTMVTVSSRTGGGGSKLEVQLVETGGGLIQPGGSLRLSCAASGFTVSDNYMTWVRQAPGKGLEWVSVIFSGGNTYYADSVKGRFTISRDNAKNTLYLQMNSLRAEDTALYYCARRNYDDTRGTDVFDIWGQGTMVTVSSASEPKSSDKTHTCPPCPAPEAAGGPSVFLFPPKPKDTLMISRTPEVTCVVVDVSHEDPEVKFNWYVDGVEVHNAKTKPREEQYNSTYRVVSVLTVLHQDWLNGKEYKCKVSNKALGAPIEKTISKAKGQPREPQVCTLPPSREEMTKNQVSLSCAVKGFYPSDIAVEWESNGQPENNYKTTPPVLDSDGSFFLVSKLTVDKSRWQQGNVFSCSVMHEALHNHYTQKSLSLSPGK	39300	1.82	63900
PR002310 (bispecific antibody, human IgG1, lambda, L234A L235A) light: QAVVTQEPSLTVSPGGTVTLTCRSSTGAVTTSNYANWVQQKPGQAPRGLIGGTNKRAPWTPARFSGSLLGDKAALTLLGAQPEDEAEYFCALWYSNLWVFGGGTKLTVLGQPKAAPSVTLFPPSSEELQANKATLVCLISDFYPGAVTVAWKADSSPVKAGVETTTPSKQSNNKYAASSYLSLTPEQWKSHRSYSCQVTHEGSTVEKTVAPTECS heavy: EVQLLESGGGLVQPGGSLRLSCAASGFTFSTYAMNWVRQAPGKGLEWVSRIRSKYNNYATYYADSVKDRFTISRDDSKSTLYLQMNSLRAEDTAVYYCVRHGNFGNSYVSWFAYWGQGTLVTVSSASTKGPSVFPLAPSSKSTSGGTAALGCLVKDYFPEPVTVSWNSGALTSGVHTFPAVLQSSGLYSLSSVVTVPSSSLGTQTYICNVNHKPSNTKVDKKVEPKSCDKTHTCPPCPAPEAAGGPSVFLFPPKPKDTLMISRTPEVTCVVVDVSHEDPEVKFNWYVDGVEVHNAKTKPREEQYNSTYRVVSVLTVLHQDWLNGKEYKCKVSNKALGAPIEKTISKAKGQPREPQVYTLPPCREEMTKNQVSLWCLVKGFYPSDIAVEWESNGQPENNYKTTPPVLDSDGSFFLYSKLTVDKSRWQQGNVFSCSVMHEALHNHYTQKSLSLSPGK EVQLVETGGGLIQPGGSLRLSCAASGFTVSDNYMTWVRQAPGKGLEWVSVIFSGGNTYYADSVKGRFTISRDNAKNTLYLQMNSLRAEDTALYYCARRNYDDTRGTDVFDIWGQGTMVTVSSRTGGGGSGGGGSGGGGSGGGGSGGGGSKLEVQLVETGGGLIQPGGSLRLSCAASGFTVSDNYMTWVRQAPGKGLEWVSVIFSGGNTYYADSVKGRFTISRDNAKNTLYLQMNSLRAEDTALYYCARRNYDDTRGTDVFDIWGQGTMVTVSSASEPKSSDKTHTCPPCPAPEAAGGPSVFLFPPKPKDTLMISRTPEVTCVVVDVSHEDPEVKFNWYVDGVEVHNAKTKPREEQYNSTYRVVSVLTVLHQDWLNGKEYKCKVSNKALGAPIEKTISKAKGQPREPQVCTLPPSREEMTKNQVSLSCAVKGFYPSDIAVEWESNGQPENNYKTTPPVLDSDGSFFLVSKLTVDKSRWQQGNVFSCSVMHEALHNHYTQKSLSLSPGK	42000	2.09	61300
PR002313 (bispecific antibody, human IgG1, lambda, L234A L235A) light: QAVVTQEPSLTVSPGGTVTLTCRSSTGAVTTSNYANWVQQKPGQAPRGLIGGTNKRAPWTPARFSGSLLGDKAALTLLGAQPEDEAEYFCALWYSNLWVFGGGTKLTVLGQPKAAPSVTLFPPSSEELQANKATLVCLISDFYPGAVTVAWKADSSPVKAGVETTTPSKQSNNKYAASSYLSLTPEQWKSHRSYSCQVTHEGSTVEKTVAPTECS heavy: EVQLLESGGGLVQPGGSLRLSCAASGFTFSTYAMNWVRQAPGKGLEWVSRIRSKYNNYATYYADSVKDRFTISRDDSKSTLYLQMNSLRAEDTAVYYCVRHGNFGNSYVSWFAYWGQGTLVTVSSASTKGPSVFPLAPSSKSTSGGTAALGCLVKDYFPEPVTVSWNSGALTSGVHTFPAVLQSSGLYSLSSVVTVPSSSLGTQTYICNVNHKPSNTKVDKKVEPKSCDKTHTCPPCPAPEAAGGPSVFLFPPKPKDTLMISRTPEVTCVVVDVSHEDPEVKFNWYVDGVEVHNAKTKPREEQYNSTYRVVSVLTVLHQDWLNGKEYKCKVSNKALGAPIEKTISKAKGQPREPQVYTLPPCREEMTKNQVSLWCLVKGFYPSDIAVEWESNGQPENNYKTTPPVLDSDGSFFLYSKLTVDKSRWQQGNVFSCSVMHEALHNHYTQKSLSLSPGK EVQLLESGGGLVQPGGSLRLSCAASGFTFSSYAMIWVRQAPGKGLEWVSGISESGGSTYYADSVKGRFTISRDNSKNTLYLQMNSLRAEDTAVYFCVKDLDDILTGYYKDYWGQGTLVTVSSRTGGGGSGGGGSGGGGSKLEVQLVETGGGLIQPGGSLRLSCAASGFPVSSNYMSWVRQAPGKGLEWVSVIFSGGRTYYADSVKGRFTISRDNSKNTLYLQMNSLRAEDTAVYYCARRNWIDGRDAFDIWGQGTMVTVSSASEPKSSDKTHTCPPCPAPEAAGGPSVFLFPPKPKDTLMISRTPEVTCVVVDVSHEDPEVKFNWYVDGVEVHNAKTKPREEQYNSTYRVVSVLTVLHQDWLNGKEYKCKVSNKALGAPIEKTISKAKGQPREPQVCTLPPSREEMTKNQVSLSCAVKGFYPSDIAVEWESNGQPENNYKTTPPVLDSDGSFFLVSKLTVDKSRWQQGNVFSCSVMHEALHNHYTQKSLSLSPGK	7610	17.1	78000

Continued, values first:

Maximum MFI [1]	EC50 [2] [nM]	Maximum MFI [2]	Binder
6440	3.54	60000	PR002326 (bispecific antibody, human IgG1, lambda, L234A L235A) light: QAVVTQEPSLTVSPGGTVTLTCRSSTGAVTTSNYANWVQQKPGQAPRGLIGGTNKRAPWTPARFSGSLLGDKAALTLLGAQPEDEAEYFCALWYSNLWVFGGGTKLTVLGQPKAAPSVTLFPPSSEELQANKATLVCLISDFYPGAVTVAWKADSSPVKAGVETTTPSKQSNNKYAASSYLSLTPEQWKSHRSYSCQVTHEGSTVEKTVAPTECS heavy: EVQLLESGGGLVQPGGSLRLSCAASGFTFSTYAMNWVRQAPGKGLEWVSRIRSKYNNYATYYADSVKDRFTISRDDSKSTLYLQMNSLRAEDTAVYYCVRHGNFGNSYVSWFAYWGQGTLVTVSSASTKGPSVFPLAPSSKSTSGGTAALGCLVKDYFPEPVTVSWNSGALTSGVHTFPAVLQSSGLYSLSSVVTVPSSSLGTQTYICNVNHKPSNTKVDKKVEPKSCDKTHTCPPCPAPEAAGGPSVFLFPPKPKDTLMISRTPEVTCVVVDVSHEDPEVKFNWYVDGVEVHNAKTKPREEQYNSTYRVVSVLTVLHQDWLNGKEYKCKVSNKALGAPIEKTISKAKGQPREPQVYTLPPCREEMTKNQVSLWCLVKGFYPSDIAVEWESNGQPENNYKTTPPVLDSDGSFFLYSKLTVDKSRWQQGNVFSCSVMHEALHNHYTQKSLSLSPGK EVQLVETGGGLIQPGGSLRLSCAASGFTVSSNYMTWVRQAPGKGLEWVSVIFSGGSTYYADSVKGRFTISRDNSKNTLYLQMNSLRAEDTAVYYCARRIAVAGHDVFDIWGQGTMVTVSSRTGGGGSGGGGSGGGGSKLEVQLVETGGGLIQPGGSLRLSCAASGFTVSDNYMTWVRQAPGKGLEWVSVIFSGGNTYYADSVKGRFTISRDNAKNTLYLQMNSLRAEDTALYYCARRNYDDTRGTDVFDIWGQGTMVTVSSASEPKSSDKTHTCPPCPAPEAAGGPSVFLFPPKPKDTLMISRTPEVTCVVVDVSHEDPEVKFNWYVDGVEVHNAKTKPREEQYNSTYRVVSVLTVLHQDWLNGKEYKCKVSNKALGAPIEKTISKAKGQPREPQVCTLPPSREEMTKNQVSLSCAVKGFYPSDIAVEWESNGQPENNYKTTPPVLDSDGSFFLVSKLTVDKSRWQQGNVFSCSVMHEALHNHYTQKSLSLSPGK
7810	6.89	58900	PR002328 (bispecific antibody, human IgG1, lambda, L234A L235A) light: QAVVTQEPSLTVSPGGTVTLTCRSSTGAVTTSNYANWVQQKPGQAPRGLIGGTNKRAPWTPARFSGSLLGDKAALTLLGAQPEDEAEYFCALWYSNLWVFGGGTKLTVLGQPKAAPSVTLFPPSSEELQANKATLVCLISDFYPGAVTVAWKADSSPVKAGVETTTPSKQSNNKYAASSYLSLTPEQWKSHRSYSCQVTHEGSTVEKTVAPTECS heavy: EVQLLESGGGLVQPGGSLRLSCAASGFTFSTYAMNWVRQAPGKGLEWVSRIRSKYNNYATYYADSVKDRFTISRDDSKSTLYLQMNSLRAEDTAVYYCVRHGNFGNSYVSWFAYWGQGTLVTVSSASTKGPSVFPLAPSSKSTSGGTAALGCLVKDYFPEPVTVSWNSGALTSGVHTFPAVLQSSGLYSLSSVVTVPSSSLGTQTYICNVNHKPSNTKVDKKVEPKSCDKTHTCPPCPAPEAAGGPSVFLFPPKPKDTLMISRTPEVTCVVVDVSHEDPEVKFNWYVDGVEVHNAKTKPREEQYNSTYRVVSVLTVLHQDWLNGKEYKCKVSNKALGAPIEKTISKAKGQPREPQVYTLPPCREEMTKNQVSLWCLVKGFYPSDIAVEWESNGQPENNYKTTPPVLDSDGSFFLYSKLTVDKSRWQQGNVFSCSVMHEALHNHYTQKSLSLSPGK EVQLVETGGGLIQPGGSLRLSCAASGFTVSSNYMTWVRQAPGKGLEWVSVIFSGGSTYYADSVKGRFTISRDNSKNTLYLQMNSLRAEDTAVYYCARRIAVAGHDVFDIWGQGTMVTVSSRTGGGGSGGGGSGGGGSGGGGSGGGGSKLEVQLVETGGGLIQPGGSLRLSCAASGFTVSDNYMTWVRQAPGKGLEWVSVIFSGGNTYYADSVKGRFTISRDNAKNTLYLQMNSLRAEDTALYYCARRNYDDTRGTDVFDIWGQGTMVTVSSASEPKSSDKTHTCPPCPAPEAAGGPSVFLFPPKPKDTLMISRTPEVTCVVVDVSHEDPEVKFNWYVDGVEVHNAKTKPREEQYNSTYRVVSVLTVLHQDWLNGKEYKCKVSNKALGAPIEKTISKAKGQPREPQVCTLPPSREEMTKNQVSLSCAVKGFYPSDIAVEWESNGQPENNYKTTPPVLDSDGSFFLVSKLTVDKSRWQQGNVFSCSVMHEALHNHYTQKSLSLSPGK
